From patent US20060052301A1, “Splice variants of peptide YY, neuropeptide Y, pancreatic peptide Y and Amylin, and uses thereof” (priority 2004, published 2006)

B1: Amylin: 37-amino acid monomeric polypeptide hormone co-secreted with insulin from pancreatic beta cells (peptide, listed as Homo sapiens)
chain: MGILKLQVFLIVLSVALNHLKATPIESHQVEKRKCNTATCATQRLANFLVHSSNNFGAILSSTNVGSNTYGKRNAVEVLKREPLNYLPL

Key:
[1] = In-vitro stability study in acetate buffer (Alzet pump model, HPLC); type: physicochemical; settings: 20 mM acetate buffer pH 4.0, 37° C., 28 days
Method: (Alzet in-vitro protocol, DURECT Corporation, Calif., USA) following the analysis of the solutions by HPLC.
In all the cases 2 or 3 different experiments were carried out.

ob/ob female mice = assay: Treatment effects on body weight and food intake, continuous infusion by Alzet mini-osmotic pump; type: in vivo; settings: 300 or 1000 μg/Kg/day
Method: Assessment of potential treatment effect on body weight and food intake by PYY variants of the present invention is performed under blinded conditions. The test system includes 40 ob/ob female mice, each about 50 g & 12 weeks of age at study initiation, in 5 groups (n=8), housed 4 per cage.
The first week, representing the first stage of the experiment, is the first acclimatization stage, when the 12 hours light and dark cycles regime is applied at the same hours of the day (light cycle is between 6:30-18:30). The viability check and clinical signs observations are checked daily.
The second week of the experiment, is the second acclimatization stage, when the same 12 hours/12 hours light and dark cycles regime is applied. At this stage, every day at the same time each day, the following parameters are assessed: daily viability check and clinical signs observations, including for example, changes in skin, fur, eyes, mucous membranes, secretions, activity and response to handling, as well as any unusual behavior, sleep and coma; body weight measurement 3 times/week; and food consumption measurement 1 time/daily for 5 days a week.
The third stage, days 15-43 (weeks 3-6 of the experiment), is the test compound administration stage.
On day 15, an Alzet mini-osmotic pump (model 2004), is surgically inserted into each test animal, under general anesthesia. […]

[2] = in rats, in rabbits, and in humans with Paget's disease; cited from earlier work

| Molecule | Purity (%) (average ± stdev) ([1]; high dose (PYY[3-36] 10.6 mg/ml; PYY variant [3-42] 12.8 mg/ml)) | Purity (%) (average ± stdev) ([1]; low dose (PYY[3-36] 3.3 mg/ml; PYY variant [3-42] 3.9 mg/ml)) | body weight gain (ob/ob female mice; 28 days, versus control group) | food intake (ob/ob female mice; especially during the first days of the study) | lowering of plasma calcium [2] |
| --- | --- | --- | --- | --- | --- |
| PYY variant: PYY splice variant skipping exon 3, residues 3-42, SEQ ID NO:75; lacks last Tyr, adds 7 C-terminal residues SEGPDLW | 72.3 ± 0.2% | 69.2 ± 0.6% | gain significantly less weight than the control group | significant effect of reduction in the food intake |  |
| B1 |  |  |  |  | up to 20% |
